From patent publication US12104181B2, “Compositions and methods for treating viral infections targeting TRIM7” (THE BOARD OF REGENTS OF THE UNIVERSITY OF TEXAS SYSTEM, priority 2021, dated 2024) come the findings set out here.

The test system of the test is coxsackievirus B3 (CVB3-GFP). The class given is cell-based. To be noted: HeLa cells, replicate R1; for Percent Infected R1: GFP-positive cells within RFP-positive gate.

B1: TRIM49: human RING type E3 ligase expressed from lentiviral vector (protein, UniProt P0CI25 1-452, looked up)
Tripartite motif-containing …: MNSGILQVFQGELICPLCMNYFIDPVTIDCGHSFCRPCFYLNWQDIPFLVQCSECTKSTEQINLKTNIHLKKMASLARKVSLWLFLSSEEQMCGTHRETKKIFCEVDRSLLCLLCSSSQEHRYHRHRPIEWAAEEHREKLLQKMQSLWEKACENHRNLNVETTRTRCWKDYVNLRLEAIRAEYQKMPAFHHEEEKHNLEMLKKKGKEIFHRLHLSKAKMAHRMEILRGMYEELNEMCHKPDVELLQAFGDILHRSESVLLHMPQPLNPELSAGPITGLRDRLNQFRVHITLHHEEANNDIFLYEILRSMCIGCDHQDVPYFTATPRSFLAWGVQTFTSGKYYWEVHVGDSWNWAFGVCNMYRKEKNQNEKIDGKAGLFLLGCVKNDIQCSLFTTSPLMLQYIPKPTSRVGLFLDCEAKTVSFVDVNQSSLIYTIPNCSFSPPLRPIFCCIHF
modifications: lentiviral expression
notes: human RING type E3 ligase expressed from lentiviral vector
With B1, the “Percent Infected R1” value is on record as 65.7% and the “Z score R1” value is on record as −0.291.

B2: TRIM50: human RING type E3 ligase expressed from lentiviral vector (protein, UniProt Q86XT4 1-487, looked up)
E3 ubiquitin-protein ligase …: MAWQVSLPELEDRLQCPICLEVFKEPLMLQCGHSYCKGCLVSLSCHLDAELRCPVCRQAVDGSSSLPNVSLARVIEALRLPGDPEPKVCVHHRNPLSLFCEKDQELICGLCGLLGSHQHHPVTPVSTVYSRMKEELAALISELKQEQKKVDELIAKLVNNRTRIVNESDVFSWVIRREFQELHHLVDEEKARCLEGIGGHTRGLVASLDMQLEQAQGTRERLAQAECVLEQFGNEDHHKFIRKFHSMASRAEMPQARPLEGAFSPISFKPGLHQADIKLTVWKRLFRKVLPAPEPLKLDPATAHPLLELSKGNTVVQCGLLAQRRASQPERFDYSTCVLASRGFSCGRHYWEVVVGSKSDWRLGVIKGTASRKGKLNRSPEHGVWLIGLKEGRVYEAFACPRVPLPVAGHPHRIGLYLHYEQGELTFFDADRPDDLRPLYTFQADFQGKLYPILDTCWHERGSNSLPMVLPPPSGPGPLSPEQPTKL
Turning to B2, the “Percent Infected R1” value turned out to be 57.8% and the “Z score R1” value is reported as −0.392.

B3: TRIM61: human RING type E3 ligase expressed from lentiviral vector (protein, UniProt Q5EBN2 1-209, looked up)
Putative tripartite …: MEFVTALADLRAEASCPICLDYLKDPVTISCGHNFCLSCIIMSWKDLHDSFPCPFCHFCCPERKFISNPQLGSLTEIAKQLQIRSKKRKRQEEKHVCKKHNQVLTFFCQKDLELLCPRCSLSTDHQHHCVWPIKKAASYHRKKLEEYNAPWKERVELIEKVITMQTRKSLELKKKMESPSVTRLECSCTISAHFNLRLPGSSDSSASGS
Regarding B3, the “Percent Infected R1” value is listed as 65.8% and the “Z score R1” value was −0.29.

B4: TRIM60: human RING type E3 ligase expressed from lentiviral vector (protein, UniProt Q495X7 1-471, looked up)
Tripartite motif-containing …: MEFVTALVNLQEESSCPICLEYLKDPVTINCGHNFCRSCLSVSWKDLDDTFPCPVCRFCFPYKSFRRNPQLRNLTEIAKQLQIRRSKRKRQKENAMCEKHNQFLTLFCVKDLEILCTQCSFSTKHQKHYICPIKKAASYHREILEGSLEPLRNNIERVEKVIILQGSKSVELKKKVEYKREEINSEFEQIRLFLQNEQEMILRQIQDEEMNILAKLNENLVELSDYVSTLKHLLREVEGKSVQSNLELLTQAKSMHHKYQNLKCPELFSFRLTKYGFSLPPQYSGLDRIIKPFQVDVILDLNTAHPQLLVSEDRKAVRYERKKRNICYDPRRFYVCPAVLGSQRFSSGRHYWEVEVGNKPKWILGVCQDCLLRNWQDQPSVLGGFWAIGRYMKSGYVASGPKTTQLLPVVKPSKIGIFLDYELGDLSFYNMNDRSILYTFNDCFTEAVWPYFYTGTDSEPLKICSVSDSER
As for B4, the “Percent Infected R1” value came out at 54.3% and the “Z score R1” value is −0.436.

B5: TRIM59: human RING type E3 ligase expressed from lentiviral vector (protein, UniProt Q8IWR1 1-403, looked up)
Tripartite motif-containing …: MHNFEEELTCPICYSIFEDPRVLPCSHTFCRNCLENILQASGNFYIWRPLRIPLKCPNCRSITEIAPTGIESLPVNFALRAIIEKYQQEDHPDIVTCPEHYRQPLNVYCLLDKKLVCGHCLTIGQHHGHPIDDLQSAYLKEKDTPQKLLEQLTDTHWTDLTHLIEKLKEQKSHSEKMIQGDKEAVLQYFKELNDTLEQKKKSFLTALCDVGNLINQEYTPQIERMKEIREQQLELMALTISLQEESPLKFLEKVDDVRQHVQILKQRPLPEVQPVEIYPRVSKILKEEWSRTEIGQIKNVLIPKMKISPKRMSCSWPGKDEKEVEFLKILNIVVVTLISVILMSILFFNQHIITFLSEITLIWFSEASLSVYQSLSNSLHKVKNILCHIFYLLKEFVWKIVSH
With B5, the “Percent Infected R1” value came to 59.5% and the “Z score R1” value is −0.37.

B6: RNF170: human RING type E3 ligase expressed from lentiviral vector (protein, UniProt Q96K19 1-258, looked up)
E3 ubiquitin-protein ligase …: MAKYQGEVQSLKLDDDSVIEGVSDQVLVAVVVSFALIATLVYALFRNVHQNIHPENQELVRVLREQLQTEQDAPAATRQQFYTDMYCPICLHQASFPVETNCGHLFCGACIIAYWRYGSWLGAISCPICRQTVTLLLTVFGEDDQSQDVLRLHQDINDYNRRFSGQPRSIMERIMDLPTLLRHAFREMFSVGGLFWMFRIRIILCLMGAFFYLISPLDFVPEALFGILGFLDDFFVIFLLLIYISIMYREVITQRLTR
modifications: lentiviral expression
notes: as for B1
Turning to B6, the “Percent Infected R1” value came out at 97.3% and the “Z score R1” value came out at 0.11.

B7: TRIM45: human RING type E3 ligase expressed from lentiviral vector (protein, UniProt Q9H8W5 1-580, looked up)
E3 ubiquitin-protein ligase …: MSENRKPLLGFVSKLTSGTALGNSGKTHCPLCLGLFKAPRLLPCLHTVCTTCLEQLEPFSVVDIRGGDSDTSSEGSIFQELKPRSLQSQIGILCPVCDAQVDLPMGGVKALTIDHLAVNDVMLESLRGEGQGLVCDLCNDREVEKRCQTCKANLCHFCCQAHRRQKKTTYHTMVDLKDLKGYSRIGKPILCPVHPAEELRLFCEFCDRPVCQDCVVGEHREHPCDFTSNVIHKHGDSVWELLKGTQPHVEALEEALAQIHIINSALQKRVEAVAADVRTFSEGYIKAIEEHRDKLLKQLEDIRAQKENSLQLQKAQLEQLLADMRTGVEFTEHLLTSGSDLEILITKRVVVERLRKLNKVQYSTRPGVNDKIRFCPQEKAGQCRGYEIYGTINTKEVDPAKCVLQGEDLHRAREKQTASFTLLCKDAAGEIMGRGGDNVQVAVVPKDKKDSPVRTMVQDNKDGTYYISYTPKEPGVYTVWVCIKEQHVQGSPFTVMVRRKHRPHSGVFHCCTFCSSGGQKTARCACGGTMPGGYLGCGHGHKGHPGHPHWSCCGKFNEKSECTWTGGQSAPRSLLRTVAL
Regarding B7, the “Percent Infected R1” value is 63.9% and the “Z score R1” value is on record as −0.314.

B8: TRIM46: human RING type E3 ligase expressed from lentiviral vector (protein, UniProt Q7Z4K8 1-759, looked up)
Tripartite motif-containing …: MAEGEDMQTFTSIMDALVRISTSMKNMEKELLCPVCQEMYKQPLVLPCTHNVCQACAREVLGQQGYIGHGGDPSSEPTSPASTPSTRSPRLSRRTLPKPDRLDRLLKSGFGTYPGRKRGALHPQVIMFPCPACQGDVELGERGLAGLFRNLTLERVVERYRQSVSVGGAILCQLCKPPPLEATKGCTECRATFCNECFKLFHPWGTQKAQHEPTLPTLSFRPKGLMCPDHKEEVTHYCKTCQRLVCQLCRVRRTHSGHKITPVLSAYQALKDKLTKSLTYILGNQDTVQTQICELEEAVRHTEVSGQQAKEEVSQLVRGLGAVLEEKRASLLQAIEECQQERLARLSAQIQEHRSLLDGSGLVGYAQEVLKETDQPCFVQAAKQLHNRIARATEALQTFRPAASSSFRHCQLDVGREMKLLTELNFLRVPEAPVIDTQRTFAYDQIFLCWRLPPHSPPAWHYTVEFRRTDVPAQPGPTRWQRREEVRGTSALLENPDTGSVYVLRVRGCNKAGYGEYSEDVHLHTPPAPVLHFFLDSRWGASRERLAISKDQRAVRSVPGLPLLLAADRLLTGCHLSVDVVLGDVAVTQGRSYWACAVDPASYLVKVGVGLESKLQESFQGAPDVISPRYDPDSGHDSGAEDATVEASPPFAFLTIGMGKILLGSGASSNAGLTGRDGPTAGCTVPLPPRLGICLDYERGRVSFLDAVSFRGLLECPLDCSGPVCPAFCFIGGGAVQLQEPVGTKPERKVTIGGFAKLD
modifications: lentiviral expression
notes: as for B1
With B8, the “Percent Infected R1” value is listed as 60.8% and the “Z score R1” value is −0.354.

B9: TRIM52: human RING type E3 ligase expressed from lentiviral vector (protein, UniProt Q96A61 1-297, looked up)
E3 ubiquitin-protein ligase …: MAGYATTPSPMQTLQEEAVCAICLDYFKDPVSISCGHNFCRGCVTQLWSKEDEEDQNEEEDEWEEEEDEEAVGAMDGWDGSIREVLYRGNADEELFQDQDDDELWLGDSGITNWDNVDYMWDEEEEEEEEDQDYYLGGLRPDLRIDVYREEEILEAYDEDEDEELYPDIHPPPSLPLPGQFTCPQCRKSFTRRSFRPNLQLANMVQIIRQMCPTPYRGNRSNDQGMCFKHQEALKLFCEVDKEAICVVCRESRSHKQHSVLPLEEVVQEYQEIKLETTLVGILQIEQESIHSKAYNQ
modifications: lentiviral expression
notes: as for B1
Turning to B9, the “Percent Infected R1” value was 67.6% and the “Z score R1” value is −0.267.

B10: TRIM62: human RING type E3 ligase expressed from lentiviral vector (protein)
chain: MACSLKDELLCSICLSIYQDPVSLGCEHYFCRRCITEHWVRQEAQGARDCPECRRTFAEPALAPSLKLANIVERYSSFPLDAILNARRAARPCQAHDKVKLFCLTDRALLCFFCDEPALHEQHQVTGIDDAFDELQRELKDQLQALQDSEREHTEALQLLKRQLAETKSSTKSLRTTIGEAFERLHRLLRERQKAMLEELEADTARTLTDIEQKVQRYSQQLRKVQEGAQILQERLAETDRHTFLAGVASLSERLKGKIHETNLTYEDFPTSKYTGPLQYTIWKSLFQDIHPVPAALTLDPGTAHQRLILSDDCTIVAYGNLHPQPLQDSPKRFDVEVSVLGSEAFSSGVHYWEVVVAEKTQWVIGLAHEAASRKGSIQIQPSRGFYCIVMHDGNQYSACTEPWTRLNVRDKLDKVGVFLDYDQGLLIFYNADDMSWLYTFREKFPGKLCSYFSPGQSHANGKNVQPLRINTVRI
Turning to B10, the “Percent Infected R1” value is on record as 51.3% and the “Z score R1” value is −0.474.
